For 1 substance, stoichiometry N results are on record in PMC11742489.

The target of this test is Ca2+/CaM. Put plainly: ITC; Cav1.2-NSCaTE peptide (20-fold molar excess) injected into CaM (~50 uM); 50 mM HEPES, 100 mM KCl, 2 mM MgCl2, pH 7.5, 5 mM CaCl2 (Ca2+-saturating); 20°C by the legend, 25°C by the methods; one-site binding model.

Where “and” joins values, the source holds several entries; their conditions need not be identical. Equal entries are not always repeated.

For orientation: stoichiometry N means a count of units in the complex or per binding partner. With Cav1.2-NSCaTE(51-67) peptide, the stoichiometry N is 2 and 1.7.
